Laboratory results from patent US6136558A, “Heregulin variants” (Genentech, Inc., priority 1998, dated 2000).
Ends that are not written are not given here.

Assays:
[1] = biological target: ErbB-2/3 receptor-Ig fusion (ErbB-2/3-Ig); assay: Phage ELISA, competition with soluble ErbB-2/3-Ig; format: binding; conditions: EGF-like domain displayed monovalently on phage as pIII fusion; soluble ErbB-2/3-Ig competing half of the phage off the plate; average of duplicate experiments
Text: (§1) To produce phage displaying the domains, mutagenesis reaction mixtures were electrotransformed into XL1-Blue™ cells (Stratagene, Inc., La Jolla, Calif.), according to the manufacturer's protocol. The transformed cells were then infected with 10^11 plaque-forming units (pfu) M13K07 helper phage (Promega Corp., Madison, Wis.). […] The phage were resuspended in phosphate-buffered saline (PBS: 0.01 M sodium phosphate, 0.1 M NaCl, pH 7.5).
(§2) Microtiter plates (Nunc Maxisorp™ 96-well plates, Inter Med, Denmark) for phage ELISA were prepared as follows. The wells were precoated overnight with 0.5 μg of rabbit anti-human IgG (Fc gamma fragment-specific) antibodies (Jackson Immunoresearch, West Grove, Pa.) in 100 μL 50 mM NaCO3 (pH 9.6). The wells were blocked for 30 minutes (min) with 200 μL PBS containing 0.1% bovine serum albumin (BSA) and rinsed with wash buffer (PBS containing 0.05% Tween 20™). The wells were then coated with 0.1 μg ErbB-2/3-Ig in binding buffer (PBS, 0.1% BSA, 0.05% Tween 20™) for 1 h, and washed again.
(§3) Following incubation for 2 h at room temperature, plates were washed extensively and treated with a 1:900 dilution of anti-M13 horseradish peroxidase conjugate (Pharmacia, Piscataway, N.J.) for 20 min. The amount of phage binding was determined by assaying horseradish peroxidase activity using o-phenylenediamine dihydrochloride) substrate solution (Sigma Chemical Company, St. Louis, Mo.).

ErbB-3-Ig [2] = assay: Phage ELISA, binding to ErbB-3-Ig; conditions: for Phage ErbB-3 EC50 (wt)/EC50 (mut): relative to wild-type HRG-β1 EGF phage in same run, above 1 = higher affinity than wild-type
Text: as §1, §2, §3
(§4) Alanine-substituted variants were generated by site-directed mutagenesis according to Kunkel et al., Methods Enzymol. […] A series of oligonucleotides was used to generate a series of constructs that expressed a series of variants in which consecutive residues were mutated to alanine.
(§5) In addition, phagemid vectors for use in producing phage displaying mutated HRG-β1 EGFs containing various combinations of the above mutations ("combination variants") were prepared by Kunkel mutagenesis, using templates prepared from several of the above-described variants. […] Some of the variants and combination variants were also tested for relative ErbB-4-Ig affinity to assess specificity.
(§6) The affinities of the variants for ErbB-3-Ig and ErbB-4-Ig were determined to assess specificity.

ErbB-4-Ig [3] = assay: Phage ELISA, binding to ErbB-4-Ig; conditions: for Phage ErbB-4 EC50 (wt)/EC50 (mut): relative to wild-type HRG-β1 EGF phage in same run, above 1 = higher affinity than wild-type
Text: as §1, §2, §3, §4, §5, §6

ErbB-3-Ig [4] = assay: Inhibition of 125I-HRG-β1 177-244 binding to ErbB-3-Ig by soluble protein
Protocol: (§7) The affinities of the Trx-variant fusions for ErbB receptor-Ig fusions were determined by measuring inhibition of ^125 I-HRG-β1 177-244 binding to ErbB-3-Ig and ErbB-4-Ig. Receptor fusions were coated on plates (Nunc Maxisorp C™ break-apart strip wells, Inter Med, Denmark) via anti-human IgG, as described in Example 1 for phage ELISA. Binding assays were carried out with a constant amount of ^125 I-HRG-β1 177-244 (100-300 pM) and varying concentrations (100 pM-4 μM) of unlabeled Trx-variant fusion. Following incubation for 1-3 h at room temperature, plates were washed, and the amount of bound ^125 I-HRG-β1 177-244 in each well was counted on a gamma counter (Isodata, ICN Biomedic Systems, Huntsville, Ala.). For the ErbB-3 binding assays, the blocking buffer was TBST (0.025 M Tris-HC1 [pH 7.5], 0.15 M NaCl, 0.02% Tween 20™) containing 1% BSA; the binding buffer was RPMI 1640™ cell culture media (Gibco-BRL, Gaithersburg, Md.) containing 2 mM glutamine, 100 U/mL penicillin, 100 μg/mL streptomycin, 10 mM HEPES buffer (pH 7.2), 0.2% BSA; and the wash buffer was TBST. For the ErbB-4 binding assays, PBS containing 1% BSA was used as the blocking and binding buffers, and the wash buffer was PBS containing 0.05% Tween 20™.

ErbB-4-Ig [5] = assay: Inhibition of 125I-HRG-β1 177-244 binding to ErbB-4-Ig by soluble protein
Protocol: as §7

ErbB-2/3-Ig = assay: Inhibition of 125I-HRG binding to ErbB-2/3-Ig by soluble variant
[6] = biological target: ErbB-4 receptor-Ig fusion (human) (UniProt Q15303); assay: phage ELISA, soluble ErbB-4-Ig as competitor
[7] = biological target: ErbB-3 receptor-Ig fusion (human) (UniProt P21860); assay: phage ELISA, soluble ErbB-3-Ig as competitor (only one value in the row, read as the phage column)
[8] = biological target: ErbB-3 receptor-Ig fusion (human) (UniProt P21860); assay: phage ELISA, soluble ErbB-3-Ig as competitor
[9] = biological target: ErbB-4 receptor-Ig fusion (human) (UniProt Q15303); assay: phage ELISA, soluble ErbB-4-Ig as competitor; remark: listed apart in the source
[10] = biological target: ErbB-2/3 receptor-Ig fusion (human) (UniProt P04626); assay: phage ELISA, soluble ErbB-2/3-Ig as competitor
[11] = biological target: ErbB-3 receptor-Ig fusion (human) (UniProt P21860); assay: phage ELISA, ratio to wild-type HRG8 phage (reference itself)
[12] = biological target: ErbB-4 receptor-Ig fusion (human) (UniProt Q15303); assay: as above
[13] = biological target: ErbB-3 receptor-Ig fusion (human) (UniProt P21860); assay: phage ELISA, ratio to wild-type HRG8 phage
[14] = biological target: ErbB-4 receptor-Ig fusion (human) (UniProt Q15303); assay: phage ELISA, ratio to wild-type HRG8 phage
[15] = biological target: ErbB-2/3 heterodimers on MCF7 breast cancer carcinoma cells (Homo sapiens (Human), UniProt P04626); assay: cell-based or functional assay
[16] = biological target: ErbB-3 receptor-Ig fusion (human) (UniProt P21860); assay: displacement of 125I-HRG from ErbB-3-Ig
[17] = biological target: ErbB-4 receptor-Ig fusion (human) (UniProt Q15303); assay: displacement of 125I-HRG from ErbB-4-Ig
[18] = biological target: ErbB-2/3 receptor-Ig fusion (human) (UniProt P04626); assay: displacement of 125I-HRG from ErbB-2/3-Ig

## HRG8: wild-type HRG-β1 177-228 minimal EGF-like domain; on phage via (GGGS)3 linker to pIII 323, or soluble (SHLVKCAEKEKTFCVNGGECFMVKDLSNPSRYLCKCPNEFTGDRCQNYVMAS; not fully specified; cysteine pairing not given here) [reference compound]
[1]
  EC50: 11 nM
  ErbB-2/3-Ig EC50: slight affinity enhancement
ErbB-3-Ig [2]; phage ELISA, reference value of Table 13, read-out: wild-type HRG-β1 EGF-phage EC50 for ErbB3-Ig
  EC50: 135 ± 104 nM
ErbB-3-Ig [2]; phage ELISA
  Phage ErbB-3 EC50 (wt)/EC50 (mut): 1
ErbB-4-Ig [3]; phage ELISA, reference value of Table 13, read-out: wild-type HRG-β1 EGF-phage EC50 for ErbB4-Ig
  EC50: 163 ± 112 nM
ErbB-4-Ig [3]; phage ELISA
  Phage ErbB-4 EC50 (wt)/EC50 (mut): 1
ErbB-3-Ig [4]; soluble HRG-β1 EGF variant free of pIII, inhibition of 125I-HRG binding, read-out: ErbB-3-Ig EC50
  EC50: 2.3 ± 0.2 nM
ErbB-4-Ig [5]; soluble HRG-β1 EGF variant free of pIII, inhibition of 125I-HRG binding, read-out: ErbB-4-Ig EC50
  EC50: 1.5 ± 0.1 nM
ErbB-2/3-Ig; ErbB-2/3-Ig versus ErbB-3-Ig homodimer
  affinity for the 2/3-heterodimer versus the 3/3 homodimer: approximately 100 fold
ErbB-2/3-Ig; soluble HRG-β1 EGF variant free of pIII, inhibition of 125I-HRG binding
  EC50: 0.033 ± 0.003 nM

## G1: K211R, P213S, N214L (SHLVKCAEKEKTFCVNGGECFMVKDLSNPSRYLCRCSLEFTGDRCQNYVMAS)
ErbB-3-Ig [2]; phage ELISA
  Phage ErbB-3 EC50 (wt)/EC50 (mut): 1.2 ± 0.36
ErbB-4-Ig [3]; phage ELISA
  Phage ErbB-4 EC50 (wt)/EC50 (mut): 1.6

## HRG-β1 177-244 V199A on phage (ligand)
[6]
  EC50: 47 nM
[7]
  EC50: 27 nM

B1: HRG2 (HRG-β1 177-244 displayed on phage) (ligand)
chain: SHLVKCAEKEKTFCVNGGECFMVKDLSNPSRYLCKCPNEFTGDRCQNYVMASFYKHLGIEFMEAEELY
[8]
  EC50: 13 nM
[9]
  EC50: 19 nM
[10]
  EC50: 6 nM

B2: HRG-β1: recombinantly produced HRGβ1 177-244 (wild-type) (protein)
chain: SHLVKCAEKEKTFCVNGGECFMVKDLSNPSRYLCKCPNEFTGDRCQNYVMASFYKHLGIEFMEAEELY
modifications: ends and bridges not checked
ErbB-3-Ig [2]; alanine-substituted HRG-β1 177-244 displayed on phage, read-out: Phage EC50, binding to the ErbB-3 Receptor
  EC50: 13 nM
ErbB-4-Ig [3]; alanine-substituted HRG-β1 177-244 displayed on phage, read-out: Phage EC50, binding to the ErbB-4 Receptor
  EC50: 19 nM
ErbB-3-Ig [4]; soluble thioredoxin (Trx) fusion, inhibition of 125I-HRG-β1 177-244 binding, read-out: Sol EC50, binding to the ErbB-3 Receptor
  EC50: 9 nM
ErbB-4-Ig [5]; soluble thioredoxin (Trx) fusion, inhibition of 125I-HRG-β1 177-244 binding, read-out: Sol EC50, binding to the ErbB-4 Receptor
  EC50: 14.8 nM

B3: HRG8 (wild-type HRG-β1 EGF displayed on phage) (ligand)
chain: SHLVKCAEKEKTFCVNGGECFMVKDLSNPSRYLCKCPNEFTGDRCQNYVMAS
[8]
  EC50: 135 nM
[9]
  EC50: 163 nM
[10]
  EC50: 11 nM
[11]
  EC50(wt)/EC50(mut): 1
[12]
  EC50(wt)/EC50(mut): 1

B4: B3 (phage) (ligand)
chain: SHLVKCGEEREGFCVNGGECFMVKDLSNPSRYLCKCPNEFTGDRCQNYVMAS
[13]
  EC50(wt)/EC50(mut): 4.7
[14]
  EC50(wt)/EC50(mut): 1.7

B5: D4 (phage) (ligand)
chain: SHLVKCAEKEKTFCVNGGECYRVKTLSNPSRYLCKCPNEFTGDRCQNYVMAS
[13]
  EC50(wt)/EC50(mut): 2.9
[14]
  EC50(wt)/EC50(mut): 5

B6: I2 (phage) (ligand)
chain: SHLVKCAEKEKTFCVNGGECFMVKDLSNPSRYLCKCPNEFTGDRCQHYVIAS
[13]
  EC50(wt)/EC50(mut): 20
[14]
  EC50(wt)/EC50(mut): 10

B7: HRG8 (WT), soluble wild-type HRG-β1 EGF (ligand)
chain: SHLVKCAEKEKTFCVNGGECFMVKDLSNPSRYLCKCPNEFTGDRCQNYVMAS
modifications: ends and bridges not checked; cysteine pairing not given here
[15]
  KIRA EC50 (tyrosine phosphorylation of the ErbB-2 receptor on MCF7 cells): 0.212 nM
[16]
  EC50: 2.3 nM
[17]
  EC50: 1.5 nM
[18]
  EC50: 0.033 nM
